We go through three molecules from paper PMC11718114 (Nature Communications, 2025).

What all share (settings): both partners purified
Assay [1] has as its target T1, PI3Kα-RBD (PIK3CA-RBD(157-289)) (human, UniProt P42336 157-289).
T1 construct: also called p110α-RBD; p110α RBD; source: E. coli, purified (IMAC, TEV cleavage, second IMAC, SEC); not shown: His6, N-terminal, cleaved; MBP, N-terminal, cleaved
The assay is described as follows: ITC; GMPPNP-bound RAS (300–500 μM) in the syringe, PI3K isoform or PI3Kα-RBD (30–50 μM) in the cell; 25 °C; 20 mM HEPES pH 7.4, 150 mM NaCl, 5 mM MgCl2, 1 mM TCEP; one set of sites; duplicates. A general note: In ITC the heat of successive injections is recorded.

Assay [2] deals with T2, PI3Kα: p110α(2-1068) W1057A/I1058A/F1059A + p85(322-600) (human, UniProt P42336 2-1068; P27986 322-600, W1057A | I1058A | F1059A).
T2 construct: PIK3CA (p110α, catalytic subunit of PI3Kα), human, residues 2-1068; PIK3R1 (p85α regulatory subunit), human, residues 322-600 (nSH2-iSH2), untagged; also called PIK3CA(2-1068)W1057A/I1058A/F1059A + PIK3R1(322-600); p110α/p85; source: insect cells (baculovirus), co-expressed, purified (IMAC, TEV cleavage, second IMAC, anion exchange, SEC); not shown: His6, N-terminal, cleaved; MBP, N-terminal, …
The assay is described as above.

Assay [3] addresses T3, PI3Kα-RBD, PIK3CA-RBD(157-289) (human, UniProt P42336 157-289).
T3 construct: also called PI3Ka-RBD; p110α-RBD; source: E. coli, purified (IMAC, TEV cleavage, second IMAC, SEC); not shown: His6, N-terminal, cleaved; MBP, N-terminal, cleaved
In words: ITC; RAS GTPase (GMPPNP-bound, 300–500 μM) in the syringe, PI3K isoform or PI3Kα-RBD (30–50 μM) in the cell; 25 °C; 20 mM HEPES pH 7.4, 150 mM NaCl, 5 mM MgCl2, 1 mM TCEP; one set of sites; two replicates.

For assay [4], the target named is T4, PI3Kα: p110α(2-1068)W1057A/I1058A/F1059A + p85(322-600) (human, UniProt P42336 2-1068; P27986 322-600, W1057A | I1058A | F1059A).
T4 construct: human PIK3CA (p110α), residues 2-1068; human PIK3R1 (p85α), residues 322-600 (nSH2-iSH2), untagged; also called PI3Ka; PI3Kα (p110α + p85); source: insect cells (baculovirus), co-expressed, purified (IMAC, TEV cleavage, second IMAC, anion exchange, SEC); not shown: His6, N-terminal, cleaved; MBP, N-terminal, cleaved
The description is as above.

B1: RRAS(22-192) (domain or fragment, human, UniProt P10301 22-192, looked up)
chain: GDPPPSETHKLVVVGGGGVGKSALTIQFIQSYFVSDYDPTIEDSYTKICSVDGIPARLDILDTAGQEEFGAMREQYMRAGHGFLLVFAINDRQSFNEVGKLFTQILRVKDRDDFPVVLVGNKADLESQRQVPRSEASAFGASHHVAYFEASAKLRLNVDEAFEQLVRAVRK
notes: source: E. coli, purified (IMAC, TEV cleavage, second IMAC, SEC); exchanged to GMPPNP; not shown: His6, N-terminal, cleaved; MBP, N-terminal, cleaved
For B1, the binding result in assay [1] and in assay [2] was “binds” throughout.

B2: RRAS2(1-179)-Q36A, GMPPNP-bound (domain or fragment, human, UniProt P62070 1-179, looked up)
chain: MAAAGWRDGSGQEKYRLVVVGGGGVGKSALTIQFIASYFVTDYDPTIEDSYTKQCVIDDRAARLDILDTAGQEEFGAMREQYMRTGEGFLLVFSVTDRGSFEEIYKFQRQILRVKDRDEFPMILIGNKADLDHQRQVTQEEGQQLARQLKVTYMEASAKIRMNVDQAFHELVRVIRKFQ
notes: limits for the ITC are not separately stated; also called RRAS2-Q36A; source: E. coli, purified (IMAC, TEV cleavage, second IMAC, SEC); not shown: His6, N-terminal, cleaved; MBP, N-terminal, cleaved
As a reminder, the Kd is the free concentration of one partner at which half of the binding sites on the other are occupied at equilibrium, for simple one-to-one binding. As a reminder, the stoichiometry N is the number of molecules, sites or subunits per partner or assembly. Regarding B2, the Kd in assay [3] was 4.9 µM; in assay [4] it was 2.1 µM. The figures for the “stoichiometry N” value in assay [3] and in assay [4] were 1.12 sites and 0.95 sites, respectively.

B3: RRAS2(1-179)-Q36A (domain or fragment, human, UniProt P62070 1-179, looked up)
chain: B2 chain
notes: RRAS2 (TC21), human, residues 1-179; Limits 1-179 are stated for the crystals; also called RRAS2-Q36A; source: E. coli, purified (IMAC, TEV cleavage, second IMAC, SEC); exchanged to GMPPNP; not shown: His6, N-terminal, cleaved; MBP, N-terminal, cleaved
In the case of B3, in assay [1], the “fold increase in binding affinity against wild-type RRAS2” value worked out at 2 fold.
